One block for each sequence: values may come before it.
Key:
HLA-A*02:01 [1] = assay: IEDB peptide-MHC binding, purified MHC/competitive/radioactivity; filed as Kd, often an IC50 or EC50 that approximates it; ≥ and ≤ were set here for values at or beyond the usual limits of such assays
HLA-A*03:01 [2] = assay: as above
HLA-A*24:02 = assay: as above
HLA-A*01:01 = assay: as above
HLA-A*11:01 = assay: as above
HLA-A*02:01 [3] = assay: IEDB peptide-MHC binding, purified MHC/competitive/radioactivity; ≥ and ≤ were set here for values at or beyond the usual limits of such assays; conditions: source organism: Hepatitis B virus subtype adyw
HLA-A*03:01 [4] = assay: as above; conditions: source organism: Human immunodeficiency virus type 1 (NDK ISOLATE)
[5] = source organism: Hepatitis B virus subtype adyw
[6] = source organism: Human immunodeficiency virus type 1 (NDK ISOLATE)
[7] = source organism: Plasmodium falciparum

Sequence: PSDFFPSV
Kd (HLA-A*02:01 [1]; [5]): ≥ 50 µM

Kd (HLA-A*02:01 [1]; source organism: Homo sapiens): ≥ 5 µM
Kd (HLA-A*03:01 [2]; source organism: Homo sapiens): ≥ 5 µM
Kd (HLA-A*24:02; source organism: Homo sapiens): ≥ 5 µM
Kd (HLA-A*01:01; source organism: Homo sapiens): ≥ 5 µM
Kd (HLA-A*11:01; source organism: Homo sapiens): ≥ 5 µM
Sequence: KRYEGLTQR

Kd (HLA-A*24:02; source organism: Homo sapiens): ≥ 5 µM
Kd (HLA-A*11:01; source organism: Homo sapiens): ≥ 5 µM
Sequence: EADPTGHSY

Sequence: FLPSDFFP
Kd (HLA-A*02:01 [1]; [5]): ≥ 50 µM

Sequence: WLSLLVPFV
Kd (HLA-A*01:01; [5]): ≥ 5 µM

Sequence: FLPSDFFPS
IC50 (HLA-A*02:01 [3]): 0.117 µM

Sequence: SFLPSDFFPSV
Kd (HLA-A*02:01 [1]; [5]): ≥ 50 µM

Sequence: AVDLSHFLK
IC50 (HLA-A*03:01 [4]): 0.149 µM
Kd (HLA-A*02:01 [1]; [6]): ≥ 5 µM
Kd (HLA-A*24:02; [6]): ≥ 5 µM
Kd (HLA-A*01:01; [6]): ≥ 5 µM

Kd (HLA-A*03:01 [2]; source organism: Homo sapiens): ≥ 5 µM
Kd (HLA-A*24:02; source organism: Homo sapiens): ≥ 5 µM
Kd (HLA-A*01:01; source organism: Homo sapiens): ≥ 5 µM
Kd (HLA-A*11:01; source organism: Homo sapiens): ≥ 5 µM
Sequence: LLGRNSFEV

Kd (HLA-A*02:01 [1]; source organism: Homo sapiens): ≥ 5 µM
Kd (HLA-A*03:01 [2]; source organism: Homo sapiens): ≥ 5 µM
Kd (HLA-A*24:02; source organism: Homo sapiens): ≥ 5 µM
Kd (HLA-A*01:01; source organism: Homo sapiens): ≥ 5 µM
Kd (HLA-A*11:01; source organism: Homo sapiens): ≥ 5 µM
Sequence: RRYQKSTEL

Sequence: ELRSRYWAI
Kd (HLA-A*24:02; source organism: Influenza A virus (A/Puerto Rico/8/1934(H1N1))): ≥ 5 µM

Sequence: FLPSDFFPSVR
IC50 (HLA-A*02:01 [3]): 0.305 µM

Sequence: ILKEPVHGV
Kd (HLA-A*03:01 [2]; [6]): ≥ 5 µM
Kd (HLA-A*24:02; [6]): ≥ 5 µM
Kd (HLA-A*01:01; [6]): ≥ 5 µM
Kd (HLA-A*11:01; [6]): ≥ 5 µM

Sequence: KPIVQYDNF
Kd (HLA-A*02:01 [1]; [7]): ≥ 5 µM
Kd (HLA-A*03:01 [2]; [7]): ≥ 5 µM
Kd (HLA-A*24:02; [7]): ≥ 5 µM
Kd (HLA-A*01:01; [7]): ≥ 5 µM
Kd (HLA-A*11:01; [7]): ≥ 5 µM

Source: the Immune Epitope Database (IEDB)
